# Experiments:
# Assay in all cases: cell-based or functional assay
# [1] = molecular target: Tre G104_P321 CaM chimera
# [2] = molecular target: FKBP-2CaM-Tre-FKBP fusion protein
# [3] = molecular target: FKBP-2CaM-BLA-FKBP
binder,measurement,setting,value
"KRRWKKNFIAVSAANRFKKISSSGAL (peptide, UniProt P07313 578-603, looked up) [M13 calmodulin binding peptide]",EC50 (read off the curve),[1],~60 nM
FRB-CaM-BP (fusion of FRB and a low affinity calmodulin binding peptide) (other) AHHHHHHSSGTRVAILWHEMWHEGLEEASRLYFGERNVKGMFEVLEPLHAMMERGPQTLKETSFNQAYGRDLMEAQEWCRKYMKSGNVKDLTQAWDLYYHVFRRISGGSGGSGSGSGGSGGKRRWKKNFIAVSAANR,"apparent Kd from titration with rapamycin (small molecule varied; 100 nM 2FKBP-Tre-2CaM, 200 nM FRB-CaM-BP; trehalase activity)",[2],89 nM
same,"apparent Kd from titration with rapamycin (small molecule varied; 25 nM BLA-2CaM-2FKBP, 100 nM FRB-CaM-BP; β-lactamase activity)",[3],11 nM

# — patent US20250075249A1 (QUEENSLAND UNIVERSITY OF TECHNOLOGY, published 2025)
